Experimental data from publication PMC11375168 (Nature Communications, 2024).

Biological target: the molecule itself
Assay: cryo-EM structure

B1: Mycobacterium tuberculosis EfpA (MtEfpA), full length, with C-terminal GFP and Strep-Tag II (natural protein)
chain: MTALNDTERAVRNWTAGRPHRPAPMRPPRSEETASERPSRYYPTWLPSRSFIAAVIAIGGMQLLATMDSTVAIVALPKIQNELSLSDAGRSWVITAYVLTFGGLMLLGGRLGDTIGRKRTFIVGVALFTISSVLCAVAWDEATLVIARLSQGVGSAIASPTGLALVATTFPKGPARNAATAVFAAMTAIGSVMGLVVGGALTEVSWRWAFLVNVPIGLVMIYLARTALRETNKERMKLDATGAILATLACTAAVFAFSIGPEKGWMSGITIGSGLVALAAAVAFVIVERTAENPVVPFHLFRDRNRLVTFSAILLAGGVMFSLTVCIGLYVQDILGYSALRAGVGFIPFVIAMGIGLGVSSQLVSRFSPRVLTIGGGYLLFGAMLYGSFFMHRGVPYFPNLVMPIVVGGIGIGMAVVPLTLSAIAGVGFDQIGPVSAIALMLQSLGGPLVLAVIQAVITSRTLYLGGTTGPVKFMNDVQLAALDHAYTYGLLWVAGAAIIVGGMALFIGYTPQQVAHAQEVKEAIDAGEL
With B1 the “stoichiometry N” value was 2.
